Data taken from patent US20240101668A1 (WUGEN, published 2024).

T1: huCLL1-K244-Avi-Tev-His (human, UniProt Q5QGZ9 65-265)
T1 construct: extracellular domain
T1 sequence (looked up): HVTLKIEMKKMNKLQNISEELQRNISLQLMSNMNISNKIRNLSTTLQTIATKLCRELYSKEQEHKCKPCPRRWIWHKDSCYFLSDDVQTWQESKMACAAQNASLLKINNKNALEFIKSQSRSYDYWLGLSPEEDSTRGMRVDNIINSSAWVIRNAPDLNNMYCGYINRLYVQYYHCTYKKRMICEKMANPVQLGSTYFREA

T2: huCLL1-Q244-Avi-Tev-His (human, UniProt Q5QGZ9 65-265)
T2 construct: extracellular domain; also called CLL-1 K244Q
T2 sequence (looked up): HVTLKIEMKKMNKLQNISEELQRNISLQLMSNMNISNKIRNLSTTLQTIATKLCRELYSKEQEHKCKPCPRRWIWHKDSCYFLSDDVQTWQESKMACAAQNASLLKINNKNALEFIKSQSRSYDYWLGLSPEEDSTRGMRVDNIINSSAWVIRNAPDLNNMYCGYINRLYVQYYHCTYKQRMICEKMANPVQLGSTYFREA


Experiments:
huCLL1-K244-Avi-Tev-His = molecular target: T1, huCLL1-K244-Avi-Tev-His; test: BLI
Method: (§1) Discovered scFvs were analyzed for binding to huCD33-R69-His or huCD33-G69-Fc recombinant proteins (for anti-CD33 scFvs; for CLL-1 scFvs, huCLL1-K244-Avi-Tev-His or huCLL1-Q244-Avi-Tev-His were used; for FLT3, huFLT3-T227-His or huFLT3-M227-Fc were used) using BLI on a ForteBio Octet HTX instrument. Streptavidin-coated biosensors were loaded with biotinylated anti-V5 tag monoclonal antibody for 5 min and were then quenched and blocked with 20 μM amine-PEG2-Biotin for 5 min. scFvs were captured on biosensors from scFv clone periplasmic extracts. huCD33 (or huCLL-1, or huFLT3) proteins were then associated with the captured scFvs for 2 minutes, followed by dissociation with buffer (1×HBST [10 mM HEPES pH 7.4, 150 mM NaCl, 0.05% Tween-20], 1 g/L BSA) for 5 minutes. […] Data was fitted with 1:1 Langmuir equation and off-rate values were reported.
(§2) Analogous methods were used to assess selectivity of binding of polypeptides to CLL-1 K244 or CLL-1 Q244.

huCLL1-Q244-Avi-Tev-His = molecular target: T2, huCLL1-Q244-Avi-Tev-His; test: BLI
Method: as §1, §2

[1] = molecular target: T3, huFLT3-T227 stably expressed on Ramos cells (human, UniProt P36888 27-993); test: FACS on cells
T3 construct: whole, on cells; also called FLT3 WT
Method: (§3) For FLT3, Ramos cells were engineered to stably express either the huFLT3-T227 or huFLT3-M227 variant at >200,000 receptors per cell. Parental, huFLT3-T227, and huFLT3-M227 Ramos cell lines were stained with differing levels of CellTrace Violet Cell Proliferation Kit (ThermoFisher, cat. #C34557) to barcode each cell line. Barcoded Ramos cell lines were fixed with paraformaldehyde and incubated with myc-labeled scFv periplasmic extracts and a secondary anti-myc PE-conjugated monoclonal antibody. Appropriate positive and negative controls were used. Stained cells were analyzed by flow cytometry (CytoFLEX, Beckman Coulter, Inc.) and binding was assessed by change in PE mean fluorescence intensity (MFI) of the barcoded cell populations.

[2] = molecular target: T4, huFLT3-M227 stably expressed on Ramos cells (human, UniProt P36888 27-993); test: FACS on cells
T4 construct: whole, on cells; also called FLT3 Mutant
Method: as §3
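Wherever result is given: Bio-layer interferometry with scFvs captured on biosensors via anti-V5 antibody, exposed 2 min to CLL-1 K244 or Q244 protein, 5 min dissociation, scored as binding, no binding or ambiguous.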

Binder	binding result (huCLL1-K244-Avi-Tev-His)	binding result (huCLL1-Q244-Avi-Tev-His)	FACS geometric mean fold change over Jurkat parental [1]	FACS geometric mean fold change over Jurkat parental [2]
Polypeptide No. 50 (scFv, V domains shown, scFv) VH: QVQLVQSGAEVKKPGASVKVSCKASGYTFTDYYMHWVRQAPGQGLEWMGIINPSDGSTTYAQSFQGRVTMTRDTSTSTVYMELSSLRSEDTAVYYCARDELPDSSGWYGYFQHWGQGTLVTVSS VL: DIQMTQSPSSLSASVGDRVTITCRASQSISSWLAWYQQKPGKAPKLLIYAASSLQSGVPSRFSGSGSGTDFTLTISSLQPEDFATYYCQQSYDIPLTFGGGTKVEIKR	binds	no binding	–	–
Polypeptide No. 51 (scFv, V domains shown, scFv) VH: QVQLVQSGAEVKKPGSSVKVSCKASGGTFSSYAISWVRQAPGQGLEWMGEIIPFFGTANYAQKFQGRVTITADESTSTAYMELSSLRSEDTAVYYCARAEYGGDLDYWGQGTLVTVSS VL: DIQMTQSPSSLSASVGDRVTITCQASQDISNLLNWYQQKPGKAPKLLIYAASTLQSGVPSRFSGSGSGTDFTLTISSLQPEDFATYYCQQSYNTPWTFGPGTKVDIKR	binds	no binding	–	–
Polypeptide No. 52 (scFv, V domains shown, scFv) VH: QVQLVQSGAEVKKPGASVKVSCKASGDTFTRHYVHWVRQAPGQGLEWMGIINPRGGTHYAQKFQGRVTMTRDTSTSTVYMELSSLRSEDTAVYYCARRDCSGGSCYSDLDYWGQGTLVTVSS VL: DIQMTQSPSSLSASVGDRVTITCQASQDIHNYLNWYQQKPGKAPKLLIYQASSLESGVPSRFSGSGSGTDFTLTISSLQPEDFATYYCQQANSFPLTFGGGTKLEIKR	binds	no binding	–	–
Polypeptide No. 53 (scFv, V domains shown, scFv) VH: QVQLVQSGAEVKKPGASVKVSCKASGGTFSSYAISWVRQAPGQGLEWMGWINPDSGDASYARKFQGRVTMTRDTSTSTVYMELSSLRSEDTAVYYCATFGEEAFDIWGQGTMVTVSS VL: DIQMTQSPSSLSASVGDRVTITCRASQNIGSWLAWYQQKPGKAPKLLIYGASILQSGVPSRFSGSGSGTDFTLTISSLQPEDFATYYCQQANSFPLTFGGGTKLEIKR	binds	no binding	–	–
Polypeptide No. 54 (scFv, V domains shown, scFv) VH: QVQLVQSGAEVKKPGASVKVSCKASGGTFSSYAISWVRQAPGQGLEWMGWIDPKNGDTNYAQKFQGRVTMTRDTSTSTVYMELSSLRSEDTAVYYCATEGSHHPYYYYGMDVWGQGTTVTVSS VL: DIQMTQSPSSLSASVGDRVTITCRASQGIGNWLAWYQQKPGKAPKLLIYEASTLQSGVPSRFSGSGSGTDFTLTISSLQPEDFATYYCHQYNAYPWTFGQGTKVEIKR	binds	no binding	–	–
Polypeptide No. 55 (scFv, V domains shown, scFv) VH: QVQLVQSGAEVKKPGASVKVSCKASGYTFTGYHMHWVRQAPGQGLEWMGWINPNTGGTNYAQKFQGRVTMTRDTSTSTVYMELSSLRSEDTAVYYCARPNTAMVPPYYYYYGMDVWGQGTLVTVSS VL: DIQMTQSPSSLSASVGDRVTITCQASQDISNYLNWYQQKPGKAPKLLIYAASSLQSGVPSRFSGSGSGTDFTLTISSLQPEDFATYYCQQYNSYPLTFGQGTKLEIKR	binds	no binding	–	–
Polypeptide No. 56 (scFv, V domains shown, scFv) VH: QVQLVQSGAEVKKPGASVKVSCKASGYTFTSYDINWVRQAPGQGLEWMGWMNPNSGNTGYAQKFQGRVTMTRDTSTSTVYMELSSLRSEDTAVYYCARVSATGTYGLDYWGQGTLVTVSS VL: DIQMTQSPSSLSASVGDRVTITCRASHSISSWLAWYQQKPGKAPKLLIYDASNLETGVPSRFSGSGSGTDFTLTISSLQPEDFATYYCQQADSFPLTFGGGTKVEIKR	binds	no binding	–	–
Polypeptide No. 57 (scFv, V domains shown, scFv) VH: QVQLVQSGAEVKKPGASVKVSCKASGYTFNNYGITWVRQAPGQGLEWMGIINPITGVTTYAQNFQGRVTMTRDTSTSTVYMELSSLRSEDTAVYYCASGEQQLVLFDYWGQGTLVTVSS VL: DIQMTQSPSSLSASVGDRVTITCQASQDINDYLNWYQQKPGKAPKLLIYGASNLQSGVPSRFSGSGSGTDFTLTISSLQPEDFATYYCLQHNSYPLTFGQGTKLEIKR	binds	no binding	–	–
Polypeptide No. 58 (scFv, V domains shown, scFv) VH: QVQLVQSGAEVKKPGASVKVSCKASGYTFTDYYLHWVRQAPGQGLEWMGWMNPNSGNTGYAQKFQGRVTMTRDTSTSTVYMELSSLRSEDTAVYYCAADVITAYGMDVWGQGTMVTVSS VL: DIQMTQSPSSLSASVGDRVTITCRASQGISNYLAWYQQKPGKAPKLLIYDASNLETGVPSRFSGSGSGTDFTLTISSLQPEDFATYYCQQSYNVPPTFGQGTKVEIKR	binds	no binding	–	–
Polypeptide No. 59 (scFv, V domains shown, scFv) VH: EVQLLESGGGLVQPGGSLRLSCAASGFTFSNAWMSWVRQAPGKGLEWVADISYDGTNDYYADSVKGRFTISRDNSKNTLYLQMNSLRAEDTAVYYCTTEELRFGGFDYWGQGTLVTVSS VL: DIQMTQSPSSLSASVGDRVTITCRASQSISSYLNWYQQKPGKAPKLLIYDASNLETGVPSRFSGSGSGTDFTLTISSLQPEDFATYYCQQANSFPLTFGQGTKVEIKR	binds	no binding	–	–
Polypeptide No. 60 (scFv, V domains shown, scFv) VH: QVQLVQSGAEVKKPGSSVKVSCKASGGTFSSYAISWVRQAPGQGLEWMGGIIPMFGTANYAQKFQGRVTITADESTSTAYMELSSLRSEDTAVYYCARDLGYSNAGGTLHYWGQGTLVTVSS VL: EIVMTQSPATLSVSPGERATLSCRASQSIGTYLAWYQQKPGQAPRLLIYDASSRATGIPARFSGSGSGTEFTLTISSLQSEDFAVYYCQQYKSYPLTFGGGTKVEIKR	binds	no binding	–	–
Polypeptide No. 61 (scFv, V domains shown, scFv) VH: QVQLVQSGAEVKKPGASVKVSCKASGYTFTNYYMHWVRQAPGQGLEWMGIINPSGGSTSYAQKFQGRVTMTRDTSTSTVYMELSSLRSEDTAVYYCARAEWDILTGYYIDYWGQGTLVTVSS VL: DIQMTQSPSSLSASVGDRVTITCQASQDISNYLNWYQQKPGKAPKLLIYGASSLQSGVPSRFSGSGSGTDFTLTISSLQPEDFATYYCQQHNSYPWTFGQGTKVEIKR	binds	–	–	–
Polypeptide No. 62 (scFv, V domains shown, scFv) VH: QVQLVQSGAEVKKPGASVKVSCKASGYTFTDHFVHWVRQAPGQGLEWMGWISAYNGNTNYAQKFQGRVTMTRDTSTSTVYMELSSLRSEDTAVYYCARAEYSYGFDYWGQGTLVTVSS VL: DIQMTQSPSSLSASVGDRVTITCRASQGIHNYLAWYQQKPGKAPKLLIYDASNLETGVPSRFSGSGSGTDFTLTISSLQPEDFATYYCQQTSSFPYTFGQGTKLEIKR	binds	no binding	–	–
Polypeptide No. 288 (scFv, V domains shown, scFv) VH: QVQLVQSGAEVKKPGASVKVSCKASGYTFTTYDINWVRQAPGQGLEWMGWMNPSSGNSGFAQQFQGRVTMTRDTSTSTVYMELSSLRSEDTAVYYCAREDYYDSSGYYNWGQGTLVTVSS VL: DIQMTQSPSSLSASVGDRVTITCRASQGISNNLNWYQQKPGKAPKLLIYKASTLESGVPSRFSGSGSGTDFTLTISSLQPEDFATYYCQQSYSTPITFGQGTKVEIKR	–	–	2 to 10 fold	10 to 30 fold
Polypeptide No. 292 (scFv, V domains shown, scFv) VH: QVQLVQSGAEVKKPGASVKVSCKASGYTFTSYGISWVRQAPGQGLEWMGWINPNSGGTNYAQKFQGRVTMTRDTSTSTVYMELSSLRSEDTAVYYCARQGGLRDFDYWGQGTLVTVSS VL: DIQMTQSPSSLSASVGDRVTITCRASQSISTYVNWYQQKPGKAPKLLIYDTSSLQSGVPSRFSGSGSGTDFTLTISSLQPEDFATYYCQQSFITPPTFGQGTKLEIKR	–	–	2 to 10 fold	2 to 10 fold
Polypeptide No. 293 (scFv, V domains shown, scFv) VH: QVQLVQSGAEVKKPGSSVKVSCKASGYMFTTPYIHWVRQAPGQGLEWMGVINPISGTTTYAQKFQGRVTITADESTSTAYMELSSLRSEDTAVYYCANDRHYDFWSGYYKEEWEYFQHWGQGTLVTVSS VL: not shown	–	–	2 to 10 fold	2 to 10 fold
Polypeptide No. 294 (scFv, V domains shown, scFv) VH: QVQLVQSGAEVKKPGASVKVSCKASGYTFTSNNMHWVRQAPGQGLEWMGWINLNSGGTNYAQKFQGRVTMTRDTSTSTVYMELSSLRSEDTAVYYCAKAIDYYYMDVWGKGTTVTVSS VL: DIQMTQSPSSLSASVGDRVTITCRASQGIRNDLGWYQQKPGKAPKLLIYQASSLENGVPSRFSGSGSGTDFTLTISSLQPEDFATYYCQQAYSLPWTFGQGTKLEIKR	–	–	10 to 30 fold	10 to 30 fold
Polypeptide No. 87 (scFv, V domains shown, scFv) VH: QVQLVQSGAEVKKPGASVKVSCKASGYSFTNYYIHWVRQAPGQGLEWMGWMNPYTGQTGYAQKFQGRVTMTRDTSTSTVYMELSSLRSEDTAVYYCTTDEETMDFHLWGRGTLVTVSS VL: DIQMTQSPSSLSASVGDRVTITCZASQSISSYLNWYQQKPGKAPKLLIYDASNLETGVPSRFSGSGSGTDFTLTISSLQPEDFATYYCQQANTFPITFGQGTRLEIKR	no binding	–	–	–
